Assay results published in the supplement of paper PMC9112550, “Optimization of the antimicrobial peptide Bac7 by deep mutational scanning” (BMC Biology, 2022).

System: Escherichia coli TOP10
Assay: shrunken log2 fold change of peptide-encoding DNA abundance (4.5 h post-induction vs induction); higher = less antimicrobial activity (less host growth inhibition)
Details: time post-induction: 4.5 h; library: site-saturation at positions 5, 18, 19, 20
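Note: peptides expressed intracellularly from a pBAD plasmid library in pooled LB shake-flask culture, induced with 0.3% L-arabinose, DNA abundance read by NGS, three biological replicates, DESeq2 with apeglm shrinkage.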

Row | Sequence | shrunken log2 fold change
1 | RRIRVRPPRLPRPRPRPPDMPRP | -0.239
2 | RRIRVRPPRLPRPRPRPPEPPRP | 0.382
3 | RRIRVRPPRLPRPRPRPPFAPRP | 0.583
4 | RRIRVRPPRLPRPRPRPPFIPRP | -0.23
5 | RRIRVRPPRLPRPRPRPPGDPRP | 0.12
6 | RRIRVRPPRLPRPRPRPPHIPRP | 0.0567
7 | RRIRVRPPRLPRPRPRPPKKPRP | 0.167
8 | RRIRVRPPRLPRPRPRPPNFPRP | 0.0102
9 | RRIRVRPPRLPRPRPRPPNIPRP | -0.475
10 | RRIRVRPPRLPRPRPRPPNLPRP | 0.239
11 | RRIRVRPPRLPRPRPRPPNSPRP | 0.12
12 | RRIRVRPPRLPRPRPRPPPHPRP | 0.676
13 | RRIRVRPPRLPRPRPRPPPSPRP | 0.897
14 | RRIRVRPPRLPRPRPRPPQDPRP | 0.27
15 | RRIRVRPPRLPRPRPRPPQKPRP | 0.23
16 | RRIRVRPPRLPRPRPRPPQRPRP | 0.374
17 | RRIRVRPPRLPRPRPRPPQYPRP | -0.19
18 | RRIRVRPPRLPRPRPRPPRCPRP | 0.324
19 | RRIRVRPPRLPRPRPRPPREPRP | 0.267
20 | RRIRVRPPRLPRPRPRPPSFPRP | 0.0364
21 | RRIRVRPPRLPRPRPRPPTTPRP | 0.47
22 | RRIRVRPPRLPRPRPRPPVSPRP | 0.847
23 | RRIRVRPPRLPRPRPRPPVTPRP | -0.0902
24 | RRIRVRPPRLPRPRPRPPWIPRP | 0.218
25 | RRIRVRPPRLPRPRPRPPYIPRP | -0.28

Row | Sequence | shrunken log2 fold change
26 | RRIRVRPPRLPRPRPRPQAQPRP | 0.173
27 | RRIRVRPPRLPRPRPRPQAVPRP | -0.0188
28 | RRIRVRPPRLPRPRPRPQDYPRP | -0.125
29 | RRIRVRPPRLPRPRPRPQECPRP | -0.00813
30 | RRIRVRPPRLPRPRPRPQFGPRP | -0.018
31 | RRIRVRPPRLPRPRPRPQGLPRP | -0.29
32 | RRIRVRPPRLPRPRPRPQGRPRP | -0.0469
33 | RRIRVRPPRLPRPRPRPQHAPRP | -0.154
34 | RRIRVRPPRLPRPRPRPQMSPRP | -0.233
35 | RRIRVRPPRLPRPRPRPQNLPRP | -0.672
36 | RRIRVRPPRLPRPRPRPQPAPRP | 0.0494
37 | RRIRVRPPRLPRPRPRPQPFPRP | -0.0258
38 | RRIRVRPPRLPRPRPRPQQDPRP | 0.151
39 | RRIRVRPPRLPRPRPRPQRGPRP | 0.198
40 | RRIRVRPPRLPRPRPRPQRYPRP | -0.883
41 | RRIRVRPPRLPRPRPRPQSYPRP | -0.461
42 | RRIRVRPPRLPRPRPRPQTDPRP | -0.27
43 | RRIRVRPPRLPRPRPRPQTGPRP | -0.0393
44 | RRIRVRPPRLPRPRPRPQVAPRP | -0.136
45 | RRIRVRPPRLPRPRPRPQWGPRP | -0.149
46 | RRIRVRPPRLPRPRPRPQWMPRP | -0.105
47 | RRIRVRPPRLPRPRPRPQYQPRP | -0.302
48 | RRIRVRPPRLPRPRPRPRDHPRP | 0.172
49 | RRIRVRPPRLPRPRPRPRDKPRP | -0.179
50 | RRIRVRPPRLPRPRPRPRETPRP | 0.513

Row | Sequence | shrunken log2 fold change
51 | RRIRVRPPRLPRPRPRPRGNPRP | 0.378
52 | RRIRVRPPRLPRPRPRPRHGPRP | 0.176
53 | RRIRVRPPRLPRPRPRPRHRPRP | 0.0675
54 | RRIRVRPPRLPRPRPRPRIMPRP | -0.601
55 | RRIRVRPPRLPRPRPRPRKNPRP | 0.0784
56 | RRIRVRPPRLPRPRPRPRMAPRP | 0.199
57 | RRIRVRPPRLPRPRPRPRMGPRP | 1.86
58 | RRIRVRPPRLPRPRPRPRMMPRP | 0.0121
59 | RRIRVRPPRLPRPRPRPRNEPRP | 0.115
60 | RRIRVRPPRLPRPRPRPRNKPRP | -0.136
61 | RRIRVRPPRLPRPRPRPRPCPRP | 0.322
62 | RRIRVRPPRLPRPRPRPRPPPRP | 0.843
63 | RRIRVRPPRLPRPRPRPRPYPRP | 0.179
64 | RRIRVRPPRLPRPRPRPRQAPRP | 0.224
65 | RRIRVRPPRLPRPRPRPRQDPRP | 0.582
66 | RRIRVRPPRLPRPRPRPRQGPRP | 0.317
67 | RRIRVRPPRLPRPRPRPRRHPRP | 0.252
68 | RRIRVRPPRLPRPRPRPRSYPRP | -0.0987
69 | RRIRVRPPRLPRPRPRPRTDPRP | -0.191
70 | RRIRVRPPRLPRPRPRPRVGPRP | 0.655
71 | RRIRVRPPRLPRPRPRPRVLPRP | 0.0884
72 | RRIRVRPPRLPRPRPRPRWAPRP | 0.343
73 | RRIRVRPPRLPRPRPRPRWFPRP | -0.0978
74 | RRIRVRPPRLPRPRPRPRYGPRP | -0.392
75 | RRIRVRPPRLPRPRPRPRYSPRP | -0.911

Row | Sequence | shrunken log2 fold change
76 | RRIRVRPPRLPRPRPRPRYVPRP | -0.218
77 | RRIRVRPPRLPRPRPRPSAGPRP | 0.295
78 | RRIRVRPPRLPRPRPRPSCCPRP | -0.133
79 | RRIRVRPPRLPRPRPRPSCVPRP | -0.583
80 | RRIRVRPPRLPRPRPRPSDCPRP | 0.234
81 | RRIRVRPPRLPRPRPRPSDGPRP | 0.000198
82 | RRIRVRPPRLPRPRPRPSEGPRP | -0.116
83 | RRIRVRPPRLPRPRPRPSEPPRP | -0.11
84 | RRIRVRPPRLPRPRPRPSEYPRP | -0.418
85 | RRIRVRPPRLPRPRPRPSFEPRP | -0.214
86 | RRIRVRPPRLPRPRPRPSFRPRP | -0.42
87 | RRIRVRPPRLPRPRPRPSGMPRP | 0.489
88 | RRIRVRPPRLPRPRPRPSHCPRP | 0.109
89 | RRIRVRPPRLPRPRPRPSHWPRP | 0.182
90 | RRIRVRPPRLPRPRPRPSKCPRP | -0.0461
91 | RRIRVRPPRLPRPRPRPSMRPRP | 0.477
92 | RRIRVRPPRLPRPRPRPSMVPRP | -0.475
93 | RRIRVRPPRLPRPRPRPSNAPRP | 0.111
94 | RRIRVRPPRLPRPRPRPSPCPRP | -0.145
95 | RRIRVRPPRLPRPRPRPSPTPRP | 0.0219
96 | RRIRVRPPRLPRPRPRPSPWPRP | 0.021
97 | RRIRVRPPRLPRPRPRPSPYPRP | -0.409
98 | RRIRVRPPRLPRPRPRPSSGPRP | -0.39
99 | RRIRVRPPRLPRPRPRPSTIPRP | -0.136
100 | RRIRVRPPRLPRPRPRPSVQPRP | -0.0929

Row | Sequence | shrunken log2 fold change
101 | RRIRVRPPRLPRPRPRPSWQPRP | -0.251
102 | RRIRVRPPRLPRPRPRPSYKPRP | -0.581
103 | RRIRVRPPRLPRPRPRPSYVPRP | -0.66
104 | RRIRVRPPRLPRPRPRPSYYPRP | -0.674
105 | RRIRVRPPRLPRPRPRPTCHPRP | -0.0606
106 | RRIRVRPPRLPRPRPRPTCQPRP | -0.035
107 | RRIRVRPPRLPRPRPRPTDAPRP | 0.0111
108 | RRIRVRPPRLPRPRPRPTEHPRP | -0.0827
109 | RRIRVRPPRLPRPRPRPTFPPRP | 0.0553
110 | RRIRVRPPRLPRPRPRPTGTPRP | 0.699
111 | RRIRVRPPRLPRPRPRPTHCPRP | 0.233
112 | RRIRVRPPRLPRPRPRPTHYPRP | -0.0832
113 | RRIRVRPPRLPRPRPRPTMAPRP | 0.235
114 | RRIRVRPPRLPRPRPRPTMEPRP | -0.102
115 | RRIRVRPPRLPRPRPRPTPEPRP | 0.639
116 | RRIRVRPPRLPRPRPRPTPYPRP | -0.0655
117 | RRIRVRPPRLPRPRPRPTQPPRP | -0.0625
118 | RRIRVRPPRLPRPRPRPTRCPRP | 0.404
119 | RRIRVRPPRLPRPRPRPTREPRP | 0.59
120 | RRIRVRPPRLPRPRPRPTSAPRP | 0.0866
121 | RRIRVRPPRLPRPRPRPTSYPRP | -0.45
122 | RRIRVRPPRLPRPRPRPTTGPRP | 0.141
123 | RRIRVRPPRLPRPRPRPTWDPRP | 0.178
124 | RRIRVRPPRLPRPRPRPTWGPRP | 0.436
125 | RRIRVRPPRLPRPRPRPTWLPRP | 0.318

Row | Sequence | shrunken log2 fold change
126 | RRIRVRPPRLPRPRPRPVANPRP | -0.0212
127 | RRIRVRPPRLPRPRPRPVCHPRP | -0.29
128 | RRIRVRPPRLPRPRPRPVCIPRP | -0.0826
129 | RRIRVRPPRLPRPRPRPVCSPRP | -0.11
130 | RRIRVRPPRLPRPRPRPVFYPRP | -0.178
131 | RRIRVRPPRLPRPRPRPVGFPRP | 0.158
132 | RRIRVRPPRLPRPRPRPVHEPRP | -0.104
133 | RRIRVRPPRLPRPRPRPVHGPRP | -0.0285
134 | RRIRVRPPRLPRPRPRPVHTPRP | -0.0364
135 | RRIRVRPPRLPRPRPRPVIYPRP | -0.39
136 | RRIRVRPPRLPRPRPRPVKGPRP | -0.0226
137 | RRIRVRPPRLPRPRPRPVKTPRP | -0.11
138 | RRIRVRPPRLPRPRPRPVMLPRP | -0.0602
139 | RRIRVRPPRLPRPRPRPVMSPRP | -0.213
140 | RRIRVRPPRLPRPRPRPVNYPRP | 0.0937
141 | RRIRVRPPRLPRPRPRPVQDPRP | 0.0752
142 | RRIRVRPPRLPRPRPRPVRAPRP | 0.616
143 | RRIRVRPPRLPRPRPRPVSEPRP | 0.155
144 | RRIRVRPPRLPRPRPRPVTTPRP | 0.126
145 | RRIRVRPPRLPRPRPRPVTVPRP | -0.0359
146 | RRIRVRPPRLPRPRPRPVVAPRP | 0.17
147 | RRIRVRPPRLPRPRPRPVVFPRP | 0.00477
148 | RRIRVRPPRLPRPRPRPVWVPRP | -0.123
149 | RRIRVRPPRLPRPRPRPVWYPRP | -0.154
150 | RRIRVRPPRLPRPRPRPVYGPRP | -0.167
